{"source": "patent US20230061838A1", "about": "(SORRENTO THERAPEUTICS, published 2023)", "binders": {"B1": {"name": "anti-CD20 dimeric antigen receptor (CD20 DAR), expressed on primary human T cells (other)", "heavy": "QVQLQQPGAELVKPGASVKMSCKASGYTFTSYNMHWVKQTPGRGLEWIGAIYPGNGDTSYNQKFKGKATLTADKSSSTAYMQLSSLTSEDSAVYYCARSTYYGGDWYFNVWGAGTTVTVSAASTKGPSVFPLAPSSKSTSGGTAALGCLVKDYFPEPVTVSWNSGALTSGVHTFPAVLQSSGLYSLSSVVTVPSSSLGTQTYICNVNHKPSNTKVDKRVEPKSCDKTHTPRKIEVMYPPPYLDNEKSNGTIIHVKGKHLCPSPLFPGPSKPFWVLVVVGGVLACYSLLVTVAFIIFWVKRGRKKLLYIFKQPFMRPVQTTQEEDGCSCRFPEEEEGGCELRVKFSRSADKGERRRGKGHDGLYQGLSTATKDTYDALHMQALPPR", "light": "QIVLSQSPAILSASPGEKVTMTCRASSSVSYIHWFQQKPGSSPKPWIYATSNLASGVPVRFSGSGSGTSYSLTISRVEAEDAATYYCQQWTSNPPTFGGGTKLEIKRTVAAPSVFIFPPSDEQLKSGTASVVCLLNNFYPREAKVQWKVDNALQSGNSQESVTEQDSKDSTYSLSSTLTLSKADYEKHKVYACEVTHQGLSSPVTKSFNRGEC"}}, "target": "T1, CD20 antigen (UniProtKB P11836 - gene MS4A1), on Daudi cells (Homo sapiens, UniProt P11836 1-297)", "T1 sequence": "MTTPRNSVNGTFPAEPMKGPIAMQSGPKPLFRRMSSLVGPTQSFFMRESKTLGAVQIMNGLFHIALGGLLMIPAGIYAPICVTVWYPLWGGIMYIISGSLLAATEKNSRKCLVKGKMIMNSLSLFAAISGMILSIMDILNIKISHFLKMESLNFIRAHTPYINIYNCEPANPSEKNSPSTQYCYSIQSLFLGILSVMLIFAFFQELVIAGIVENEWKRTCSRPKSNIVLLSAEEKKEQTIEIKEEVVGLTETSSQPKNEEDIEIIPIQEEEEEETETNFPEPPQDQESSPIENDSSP", "test": "cell-based or functional assay", "data": [{"binder": "B1", "values": [{"measurement": "fold-change of expansion over four days of co-culture", "value": "> 10", "unit": "fold"}]}]}
